According to patent publication US20110287000A1 (published 2011):
Values belong to the molecule of their own block, whether it stands above or below them.

B1: human CD127 (IL-7Rα) expressed on cells (CD127-transfected CHO cells; PBMC / CD4+ T cells in functional assays) (receptor)
chain: ESGYAQNGDLEDAELDDYSFSCYSQLEVNGSQHSLTCAFEDPDVNTTNLEFEICGALVEVKCLNFRKLQEIYFIETKKFLLIGKSNICVKVGEKSLTCKKIDLTTIVKPEAPFDLSVIYREGANDFVVTFNTSHLQKKYVKVLMHDVAYRQEKDENKWTHVNLSSTKLTLLQRKLQPAAMYEIKVRSIPDHYFKGFWSEWSPSYYFRTPEINNSSGEMDPILLTISILSFFSVALLVILACVLWKKRIKPIVWPSLPDHKKTLEHLCKKPRKNLNVSFNPESFLDCQIHRVDDIQARDEVEGFLQDTFPQQLEESEKQRLGGDVQSPNCPSEDVVVTPESFGRDSSLTCLAGNVSACDAPILSSSRSLDCRESGKNGPHVYQDLLLSLGTTNSTLPPPFSLQSGILTLNPVAQGQPILTSLGSNQEEAYVTMSSFYQNQ
notes: The construct transfected into CHO is not described further; The same entry is used for native CD127 on human PBMC/T cells in functional rows; also called CHO-CD127; IL-7Rα expressed on CHO

Columns and labels:
[1] = biological target: recombinant human CD127 extracellular domain (CD127 ECD) (human) (UniProt P16871); assay: SPR (profile summary)
[2] = biological target: human CD127 (IL-7Rα) expressed on cells (CD127-transfected CHO cells; PBMC / CD4+ T cells in functional assays) (human) (UniProt P16871); assay: cell-based or functional assay
[3] = biological target: human CD127 (IL-7Rα) expressed on cells (CD127-transfected CHO cells; PBMC / CD4+ T cells in functional assays) (human) (UniProt P16871); assay: binding to CHO cells expressing IL-7Rα (flow cytometry)
[4] = biological target: recombinant human CD127 extracellular domain (CD127 ECD) (human) (UniProt P16871); assay: blocking of IL-7/IL-7Rα binding, competitor IL-7; format not given
[5] = biological target: recombinant human CD127 extracellular domain (CD127 ECD) (human) (UniProt P16871); assay: BIAcore blocking assay: inhibition ratio of CD127 ECD binding to immobilised IL-7 against antibody concentration
recombinant human IL-7 = biological target: T1, recombinant human IL-7 (human, UniProt P13232 26-177); assay: flow cytometry competition on CHO-CD127 cells: pre-incubation with IL-7, then staining with 6A3 (competitor read out: 6A3)
T1 sequence (looked up): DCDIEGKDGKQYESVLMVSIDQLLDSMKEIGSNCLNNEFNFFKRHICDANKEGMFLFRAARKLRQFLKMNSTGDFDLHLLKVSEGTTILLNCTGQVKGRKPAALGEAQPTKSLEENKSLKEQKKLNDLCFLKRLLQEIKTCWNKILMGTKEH
Protocol: After the incubation, anti-CD127 antibodies were added and the incubation continued for additional 30 min in 4% FCS in DPBS (FACS buffer). Afterward cells were washed in FACS buffer 3 times and stained with anti-mouse IgG ALEXA488 secondary antibody at 1:2000 dilution (Invitrogen Inc. #13-A11017).

[6] = biological target: T2, recombinant human CD127 extracellular domain (CD127 ECD) (human, UniProt P16871 21-219); assay: ELISA, recombinant human CD127 ECD coated on the plate, detection with HRP goat anti-mouse IgG
T2 construct: The assays only say 'recombinant human CD127 ECD'; also called IL-7Rα EDC; IL-7Rα
T2 chain: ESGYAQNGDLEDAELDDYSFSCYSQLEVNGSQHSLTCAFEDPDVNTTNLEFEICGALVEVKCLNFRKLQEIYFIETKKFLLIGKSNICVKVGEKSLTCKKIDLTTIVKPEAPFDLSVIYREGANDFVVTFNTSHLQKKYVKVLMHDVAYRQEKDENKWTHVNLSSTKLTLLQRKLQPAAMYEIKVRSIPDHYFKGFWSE
From the text: Anti-CD127 antibodies from the test hybridoma supernatants or purified material were titrated across the plate. The level of binding was detected by treatment with a horse-radish peroxidase (HRP) -conjugated goat-anti-mouse IgG antibody. The ELISA was developed using TMB substrate.

[7] = biological target: T2, recombinant human CD127 extracellular …; assay: SPR, Biacore T100; CD127 ECD immobilised on CM5, 9B7 hybridoma supernatant as analyte; table title says 37° C.
Protocol: HBS-EP buffer pH 7.4 (consisting of 10 mM HEPES, 0.15 M sodium chloride, 3 mM EDTA and 0.005% v/v surfactant P20) was used as running buffer. […] Kd values were calculated using the Biacore evaluation software package.

[8] = biological target: B1; assay: cell-based or functional assay
[9] = biological target: B1; assay: binding to CHO cells expressing IL-7Rα (flow cytometry)
[10] = biological target: T2, recombinant human CD127 extracellular …; assay: blocking of IL-7/IL-7Rα binding, competitor IL-7; format not given
[11] = biological target: T2, recombinant human CD127 extracellular …; assay: SPR, Biacore T100, 25° C.; antibody captured on rabbit anti-mouse IgG, CD127 ECD as analyte
Protocol: Antibody kinetics were assessed using a Biacore T100 system (GE Healthcare) with a reaction temperature of 25° C. Rabbit anti-mouse IgG antibody was immobilized on a CM5 biosensor chip with a final level of […] (response units) using the standard amine coupling kit and procedure. HBS-EP buffer pH 7.4 (consisting of 10 mM HEPES, 0.15 M sodium chloride, 3 mM EDTA and 0.005% v/v surfactant P20) was used as running buffer. Sensograms were run against a reference cell that was blank immobilized using EDC/NHS/ethanol amine. […] The sensor chip surfaces were regenerated with 10 mM Glycine-HCl, pH 1.7. Kd values were calculated using the Biacore evaluation software package.

[12] = biological target: T2, recombinant human CD127 extracellular …; assay: SPR (profile summary; differs from Table 3)
[13] = biological target: T2, recombinant human CD127 extracellular …; assay: BIAcore blocking assay: inhibition ratio of CD127 ECD binding to immobilised IL-7 against antibody concentration
Protocol: HBS-EP buffer pH 7.4 (consisting of 10 mM HEPES, 0.15 M sodium chloride, 3 mM EDTA and 0.005% v/v surfactant P20) was used as running buffer. Sensograms were run against a reference cell that was blank immobilized using EDC/NHS/ethanol amine. […] After each injection the sensor chip surfaces were regenerated with 10 mM Glycine-HCl, pH 2.0. […] Inhibition ratio calculated as follows: Inhibition ratio=1−RU(sample)/RU(ECD).

[14] = biological target: T2, recombinant human CD127 extracellular …; assay: blocking of IL-7/IL-7Rα binding, competitor IL-7; format not stated in the sentence (BIAcore neutralising assay with immobilised IL-7 is described in 2.11)

Molecule: R34.34 (Dendritics Inc. #DDX0700), commercial anti-human CD127 antibody
- Kd [1]: 7.74 nM
- IC50 of inhibition of pSTAT5 signalling [2]: 0.67 µg/ml
- IL-17 production in IL-7 induced differentiated T cells (CCR6+ TH17), donors with inhibition [2]: 6 of 6 donors
- EC50 [3]: 0.01 µg/mL
- IC50 [4]: 1.38 µg/mL
- IC50 (read off the curve) [5]: 3 µg/mL

Molecule: B1
- binding result (recombinant human IL-7): binds

B3: mAb 1A11 (murine anti-human CD127 monoclonal antibody) (antibody, mouse IgG1, V domains shown)
VH: EVQLQQSGPELLKPGASMKISCKASGYSFTGYTMNWVKQSHGKNLEWIGLINPYNGVTSYNQKFKGKATLTVAKSSSTAYMELLSLTSEDSAVYYCARGDGNYWYFDVWGAGTTVTVSS
VL: EIVLTQSPAITAASLGQKVTITCSASSSVTYMHWYQQKSGTSPKPWIYEISKLASGVPVRFSGSGSGTSYSLTISSMEAEDAAIYYCQEWNYPYTFGGGTKLEIK
notes: also called antibody 1A11
- IC50 of inhibition of pSTAT5 signalling [8]: 0.088 µg/ml
- EC50 [9]: 0.16 µg/mL
- IC50 [10]: 1.79 µg/mL
- Kd [11]: 3.44 nM
- koff [11]: 0.000251 s⁻¹

B6: mAb 6A3 (murine anti-human CD127 monoclonal antibody) (antibody, mouse IgG1, V domains shown)
VH: DVQLQESGPGLVKPSQSLSLTCTVTGYSITTDYAWNWIRQFPGNKLEWMGYIFYSGSTTYTPSLKSRISITRDTSKNQFFLQLNSVTTEDTATYYCARGGYDVNYFDYWGQGTTLTVSS
VL: DIQMTQSPASQSASLGESVTITCLASQTIGAWLAWYQQKPGKSPQLLIYAATRLADGVPSRFSGSGSGTKFSFKISSLQAEDFVSYYCQQFFSTPWTFGGGTKLEIK
notes: also called antibody 6A3
- IC50 of inhibition of pSTAT5 signalling [8]: 0.099 µg/ml
- Kd [12]: 7.99 nM
- koff [12]: 0.000334 s⁻¹
- EC50 [9]: 0.19 µg/mL
- Kd [11]: 7.74 nM
- koff [11]: 0.000146 s⁻¹
- kon [11]: 18900 M⁻¹ s⁻¹
- IC50 (read off the curve) [13]: ~2 µg/mL
- IC50 [14]: 1.92 µg/mL

Next, values leading:

- EC50 (read off the curve) [6]: ~0.6 µg/mL
- Kd [7]: 0.556 nM
B2: mAb 9B7 (murine anti-human CD127 monoclonal antibody) (antibody, IgG1, V domains shown)
VH: QVQLQESGPGLVAPSQSLSITCTVSGFSLSRYNVHWVRQPPGKGLEWLGMIWDGGSTDYNSALKSRLSITKDNSKSQVFLKMNSLQTDDTAMYYCARNRYESGMDYWGQGTTVTVSS
VL: DIVMTQTPSSLTVTAGEKVTMSCKSSQSLLNSGNRKNYLTWYQQKPGQSPKLLIYWASTRESGVPDRFTGSGSGTDFTLIISSVQAEDLAVYYCQNDYTYPFTFGSGTKLEIKR
notes: Mouse hybridoma antibody; also called antibody 9B7; clone 9B7

- IC50 of inhibition of pSTAT5 signalling [8]: 0.22 µg/ml
- EC50 [9]: 0.27 µg/mL
- IC50 [10]: 2.29 µg/mL
- Kd [11]: 15.3 nM
- koff [11]: 0.000875 s⁻¹
B4: mAb GR34 (reverse engineered clone of R34.34) (antibody, mouse IgG1, V domains shown)
VH: EVQLQQSGPELVKPGASMKISCKASGYSFTGYTMNWVKQSHGKNLEWIGLINPYSGITSYNQNFKGKATLTVDKSSSTAYMELLNLTSEDSAVYYCARGDGNYWYFDVWGAGTTVTVSS
VL: EIILTQSPAITAASLGQKVTITCSASSSVSYMHWYQQKSGTSPKPWIYEISKLASGVPARFSGSGSGTSYSLTISSMEAEDAAIYYCQYWNYPYTFGGGTKLEIK
notes: also called antibody GR34

- IC50 of inhibition of pSTAT5 signalling [8]: 50 µg/ml
- Kd [11]: 24.4 nM
- koff [11]: 0.000436 s⁻¹
- kon [11]: 17900 M⁻¹ s⁻¹
B5: mAb 6C5 (murine anti-human CD127 monoclonal antibody) (antibody, mouse IgG1, V domains shown)
VH: EVKLLESGGGLVQPGGSLKLSCAASGFAFSAYWMSWVRQAPGKGLEWIGEINPDSSTINCTPSLKDKFIISRDNAKNTLSLQMNKVRSEDTALYYCARRLRPFWYFDVWGAGTTVTVSS
VL: DVLMTQTPLSLPVSLGDQASISCRSSQSIVQSNGNTYLEWYLQKPGQSPKLLIYKVSNRFSGVPDRFSGSGSGTDFTLKISRVEAEDLGVYYCFQGSHVPRTFGGGTKLEIK
notes: also called antibody 6C5
